# Experimental data: patent US20040146519A1
# Target: HLA-A*2401 (human)
# Assay: inhibition of 125I probe peptide binding to purified HLA
row,Substance,relative binding ratio
1,"CEA peptide, position 118, 8 amino acids",0.001
2,"CEA peptide, position 248, 10 amino acids",0.0002
3,"CEA peptide, position 27, 10 amino acids",0.03
4,"CEA peptide, position 356, 8 amino acids",0.0009
5,"CEA peptide, position 94, 8 amino acids",0.0003

# Next, values leading:
row,relative binding ratio,Substance
1,-0.0005,"CEA peptide, position 42, 11 amino acids"
2,0.0005,"CEA peptide, position 448, 8 amino acids"
3,0.0006,"CEA peptide, position 137, 8 amino acids"
4,0.0002,"CEA peptide, position 390, 10 amino acids"
